Source: the supplement of paper PMC5998384

Legend:
HeLa Kyoto [1] = assay: solubility in G1/S (NP-40 vs SDS abundance) (log2 ratio); higher = more soluble; conditions: cell cycle stage: G1/S
HeLa Kyoto [2] = assay: solubility change mitosis vs G1/S (difference of NP-40 vs SDS log2 ratios) (log2 ratio difference); higher = more soluble in mitosis
HeLa Kyoto [3] = assay: melting temperature (median over replicates), in situ; higher = more thermally stable
HeLa Kyoto [4] = assay: thermal stability score vs G1/S (z-score of summed log2 fold changes over temperatures); higher = more thermally stable than in G1/S
[5] = cell cycle stage: early G1 (4.5 h after nocodazole release)
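Wherever melting temperature (median over replicates), in situ is given: HeLa Kyoto cells synchronized by double thymidine or nocodazole block, proteins quantified by TMT10plex mass spectrometry, three independent biological replicates.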
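Wherever solubility change mitosis vs G1/S (difference of NP-40 vs SDS log2 ratios) is given: synchronized HeLa Kyoto cells (double thymidine block for G1/S, nocodazole release for mitosis), protein amounts in NP-40 versus SDS lysates quantified by mass spectrometry, three biological replicates.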
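Wherever solubility in G1/S (NP-40 vs SDS abundance) is given: HeLa Kyoto cells arrested at G1/S by double thymidine block, proteins quantified by TMT10plex mass spectrometry in mild NP-40 versus SDS extracts, three biological replicates.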
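Wherever thermal stability score vs G1/S (z-score of summed log2 fold changes over temperatures) is given: synchronized HeLa Kyoto cells, proteins quantified by TMT10plex mass spectrometry, three biological replicates, mitosis taken 0.5 h after nocodazole release, G1/S directly after double thymidine block.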

Substance | solubility in G1/S (log2) (HeLa Kyoto [1]) | solubility change mitosis (log2) (HeLa Kyoto [2]) | melting temperature (HeLa Kyoto [3]; cell cycle stage: G1/S) [°C] | melting temperature (HeLa Kyoto [3]; cell cycle stage: mitosis) [°C] | thermal stability score (HeLa Kyoto [4]; [5]) | thermal stability score (HeLa Kyoto [4]; cell cycle stage: mitosis)
MADEAALALQPGGSPSAAGADREAASSPAGEPLRKRPRRDGPGLERSPGEPGGAAPEREVPAAARGCPGAAAAALWREAEAEAAAAGGEQEAQATAAAGEGDNGPGLQGPSREPPLADNLYDEDDDDEGEEEEEAAAAAIGYRDNLLFGDEIITNGFHSCESDEEDRASHASSSDWTPRPRIGPYTFVQQHLMIGTDPRTILKDLLPETIPPPELDDMTLWQIVINILSEPPKRKKRKDINTIEDAVKLLQECKKIIVLTGAGVSVSCGIPDFRSRDGIYARLAVDFPDLPDPQAMFDIEYFRKDPRPFFKFAKEIYPGQFQPSLCHKFIALSDKEGKLLRNYTQNIDTLEQVAGIQRIIQCHGSFATASCLICKYKVDCEAVRGDIFNQVVPRCPRCPADEPLAIMKPEIVFFGENLPEQFHRAMKYDKDEVDLLIVIGSSLKVRPVALIPSSIPHEVPQILINREPLPHLHFDVELLGDCDVIINELCHRLGGEYAKLCCNPVKLSEITEKPPRTQKELAYLSELPPTPLHVSEDSSSPERTSPPDSSVIVTLLDQAAKSNDDLDVSESKGCMEEKPQEVQTSRNVESIAEQMENPDLKNVGSSTGEKNERTSVAGTVRKCWPNRVAKEQISRRLDGNQYLFLPPNRYIFHGAEVYSDSEDDVLSSSSCGSNSDSGTCQSPSLEEPMEDESEIEEFYNGLEDEPDVPERAGGAGFGTDGDDQEAINEAISVKQEVTDMNYPSNKS [SIRT1] | -0.0978 | -0.0419 | 50.2 | 50.1 | 0.328 | 2.02
MELQDPKMNGALPSDAVGYRQEREGFLPSRGPAPGSKPVQFMDFEGKTSFGMSVFNLSNAIMGSGILGLAYAMAHTGVIFFLALLLCIALLSSYSIHLLLTCAGIAGIRAYEQLGQRAFGPAGKVVVATVICLHNVGAMSSYLFIIKSELPLVIGTFLYMDPEGDWFLKGNLLIIIVSVLIILPLALMKHLGYLGYTSGLSLTCMLFFLVSVIYKKFQLGCAIGHNETAMESEALVGLPSQGLNSSCEAQMFTVDSQMSYTVPIMAFAFVCHPEVLPIYTELCRPSKRRMQAVANVSIGAMFCMYGLTATFGYLTFYSSVKAEMLHMYSQKDPLILCVRLAVLLAVTLTVPVVLFPIRRALQQLLFPGKAFSWPRHVAIALILLVLVNVLVICVPTIRDIFGVIGSTSAPSLIFILPSIFYLRIVPSEVEPFLSWPKIQALCFGVLGVLFMAVSLGFMFANWATGQSRMSGH [SLC38A5] | -0.0136 | -0.0437 | 56.1 | 53.1 | -1.85 | -3.24
MNFLRGVMGGQSAGPQHTEAETIQKLCDRVASSTLLDDRRNAVRALKSLSKKYRLEVGIQAMEHLIHVLQTDRSDSEIIGYALDTLYNIISNEEEEEVEENSTRQSEDLGSQFTEIFIKQQENVTLLLSLLEEFDFHVRWPGVKLLTSLLKQLGPQVQQIILVSPMGVSRLMDLLADSREVIRNDGVLLLQALTRSNGAIQKIVAFENAFERLLDIISEEGNSDGGIVVEDCLILLQNLLKNNNSNQNFFKEGSYIQRMKPWFEVGDENSGWSAQKVTNLHLMLQLVRVLVSPTNPPGATSSCQKAMFQCGLLQQLCTILMATGVPADILTETINTVSEVIRGCQVNQDYFASVNAPSNPPRPAIVVLLMSMVNERQPFVLRCAVLYCFQCFLYKNQKGQGEIVSTLLPSTIDATGNSVSAGQLLCGGLFSTDSLSNWCAAVALAHALQENATQKEQLLRVQLATSIGNPPVSLLQQCTNILSQGSKIQTRVGLLMLLCTWLSNCPIAVTHFLHNSANVPFLTGQIAENLGEEEQLVQGLCALLLGISIYFNDNSLESYMKEKLKQLIEKRIGKENFIEKLGFISKHELYSRASQKPQPNFPSPEYMIFDHEFTKLVKELEGVITKAIYKSSEEDKKEEEVKKTLEQHDNIVTHYKNMIREQDLQLEELRQQVSTLKCQNEQLQTAVTQQVSQIQQHKDQYNLLKIQLGKDNQHQGSYSEGAQMNGIQPEEIGRLREEIEELKRNQELLQSQLTEKDSMIENMKSSQTSGTNEQSSAIVSARDSEQVAELKQELATLKSQLNSQSVEITKLQTEKQELLQKTEAFAKSVEVQGETETIIATKTTDVEGRLSALLQETKELKNEIKALSEERTAIKEQLDSSNSTIAILQTEKDKLELEITDSKKEQDDLLVLLADQDQKILSLKNKLKDLGHPVEEEDELESGDQEDEDDESEDPGKDLDHI [USO1] | 0.289 | -0.0652 | 51.2 | 50.6 | 2.79 | 1.73
CLASP1 | -0.0269 | -0.0633 | 48.8 | 49.2 | -0.916 | 0.139
MTTSGALFPSLVPGSRGASNKYLVEFRAGKMSLKGTTVTPDKRKGLVYIQQTDDSLIHFCWKDRTSGNVEDDLIIFPDDCEFKRVPQCPSGRVYVLKFKAGSKRLFFWMQEPKTDQDEEHCRKVNEYLNNPPMPGALGASGSSGHELSALGGEGGLQSLLGNMSHSQLMQLIGPAGLGGLGGLGALTGPGLASLLGSSGPPGSSSSSSSRSQSAAVTPSSTTSSTRATPAPSAPAAASATSPSPAPSSGNGASTAASPTQPIQLSDLQSILATMNVPAGPAGGQQVDLASVLTPEIMAPILANADVQERLLPYLPSGESLPQTADEIQNTLTSPQFQQALGMFSAALASGQLGPLMCQFGLPAEAVEAANKGDVEAFAKAMQNNAKPEQKEGDTKDKKDEEEDMSLD [ADRM1] | 0.469 | -0.24 | 51.3 | 51.1 | 0.363 | -2.12
MGKGDPKKPRGKMSSYAFFVQTCREEHKKKHPDASVNFSEFSKKCSERWKTMSAKEKGKFEDMAKADKARYEREMKTYIPPKGETKKKFKDPNAPKRPPSAFFLFCSEYRPKIKGEHPGLSIGDVAKKLGEMWNNTAADDKQPYEKKAAKLKEKYEKDIAAYRAKGKPDAAKKGVVKAEKSKKKKEEEEDEEDEEDEEEEEDEEDEDEEEDDDDE [HMGB1] | 0.464 | 0.257 | 55.4 | 54.4 | 3.27 | 2.58
MTTPANAQNASKTWELSLYELHRTPQEAIMDGTEIAVSPRSLHSELMCPICLDMLKNTMTTKECLHRFCSDCIVTALRSGNKECPTCRKKLVSKRSLRPDPNFDALISKIYPSREEYEAHQDRVLIRLSRLHNQQALSSSIEEGLRMQAMHRAQRVRRPIPGSDQTTTMSGGEGEPGEGEGDGEDVSSDSAPDSAPGPAPKRPRGGGAGGSSVGTGGGGTGGVGGGAGSEDSGDRGGTLGGGTLGPPSPPGAPSPPEPGGEIELVFRPHPLLVEKGEYCQTRYVKTTGNATVDHLSKYLALRIALERRQQQEAGEPGGPGGGASDTGGPDGCGGEGGGAGGGDGPEEPALPSLEGVSEKQYTIYIAPGGGAFTTLNGSLTLELVNEKFWKVSRPLELCYAPTKDPK [RING1] | -0.00962 | 0.222 |  | 50 | 0.769 | 1.05
MWKASAGHAVSIAQDDAGADDWETDPDFVNDVSEKEQRWGAKTVQGSGHQEHINIHKLRENVFQEHQTLKEKELETGPKASHGYGGKFGVEQDRMDKSAVGHEYQSKLSKHCSQVDSVRGFGGKFGVQMDRVDQSAVGFEYQGKTEKHASQKDYSSGFGGKYGVQADRVDKSAVGFDYQGKTEKHESQRDYSKGFGGKYGIDKDKVDKSAVGFEYQGKTEKHESQKDYVKGFGGKFGVQTDRQDKCALGWDHQEKLQLHESQKDYKTGFGGKFGVQSERQDSAAVGFDYKEKLAKHESQQDYSKGFGGKYGVQKDRMDKNASTFEDVTQVSSAYQKTVPVEAVTSKTSNIRANFENLAKEKEQEDRRKAEAERAQRMAKERQEQEEARRKLEEQARAKTQTPPVSPAPQPTEERLPSSPVYEDAASFKAELSYRGPVSGTEPEPVYSMEAADYREASSQQGLAYATEAVYESAEAPGHYPAEDSTYDEYENDLGITAVALYDYQAAGDDEISFDPDDIITNIEMIDDGWWRGVCKGRYGLFPANYVELRQ [CTTN] | -0.21 | -0.0191 | 60.6 | 57.6 | -3.16 | -3.35
MPPPQGDVTALFLGPPGLGKSALIAALCDKDVETLEAPEGRPDSGVPSLRAAGPGLFLGELSCPPAAPGPWAAEANVLVLVLPGPEGNGEPLAPALGEAALAALARGTPLLAVRNLRPGDSQTAAQARDQTAALLNSAGLGAADLFVLPANCGSSDGCEELERLRAALQSQAEALRRLLPPAQDGFEVLGAAELEAVREAFETGGLEAALSWVRSGLERLGSARLDLAVAGKADVGLVVDMLLGLDPGDPGAAPASVPTAPTPFPAPERPNVVLWTVPLGHTGTATTAAAASHPTHYDALILVTPGAPTEKDWAQVQALLLPDAPLVCVRTDGEGEDPECLGEGKMENPKGESLKNAGGGGLENALSKGREKCSAGSQKAGSGEGPGKAGSEGLQQVVGMKKSGGGDSERAAALSPEDETWEVLEEAPPPVFPLRPGGLPGLCEWLRRALPPAQAGALLLALPPASPSAARTKAAALRAGAWRPALLASLAAAAAPLPGLGWACDVALLRGQLAEWRRGLGLEPTALARRERALGLASGELAARAHFPGPVTRAEVEARLGAWAGEGTAGGAALGALSFLWPAGGAAATGGLGYRAAHGVLLQALDEMRADAEAVLAPPEPAQ [IRGQ] | 0.437 | 0.141 | 51.3 | 51.3 | -0.649 | 0.0432
MRKRTEPVALEHERCAAAGSSSSGSAAAALDADCRLKQNLRLTGPAAAEPRCAADAGMKRALGRRKGVWLRLRKILFCVLGLYIAIPFLIKLCPGIQAKLIFLNFVRVPYFIDLKKPQDQGLNHTCNYYLQPEEDVTIGVWHTVPAVWWKNAQGKDQMWYEDALASSHPIILYLHGNAGTRGGDHRVELYKVLSSLGYHVVTFDYRGWGDSVGTPSERGMTYDALHVFDWIKARSGDNPVYIWGHSLGTGVATNLVRRLCERETPPDALILESPFTNIREEAKSHPFSVIYRYFPGFDWFFLDPITSSGIKFANDENVKHISCPLLILHAEDDPVVPFQLGRKLYSIAAPARSFRDFKVQFVPFHSDLGYRHKYIYKSPELPRILREFLGKSEPEHQH [ABHD12] | 0.0996 | 0.0278 | 53 | 54.9 | 0.18 | -0.815
MQGSSLWLSLTFRSARVLSRARFFEWQSPGLPNTAAMENGTGPYGEERPREVQETTVTEGAAKIAFPSANEVFYNPVQEFNRDLTCAVITEFARIQLGAKGIQIKVPGEKDTQKVVVDLSEQEEEKVELKESENLASGDQPRTAAVGEICEEGLHVLEGLAASGLRSIRFALEVPGLRSVVANDASTRAVDLIRRNVQLNDVAHLVQPSQADARMLMYQHQRVSERFDVIDLDPYGSPATFLDAAVQAVSEGGLLCVTCTDMAVLAGNSGETCYSKYGAMALKSRACHEMALRIVLHSLDLRANCYQRFVVPLLSISADFYVRVFVRVFTGQAKVKASASKQALVFQCVGCGAFHLQRLGKASGVPSGRAKFSAACGPPVTPECEHCGQRHQLGGPMWAEPIHDLDFVGRVLEAVSANPGRFHTSERIRGVLSVITEELPDVPLYYTLDQLSSTIHCNTPSLLQLRSALLHADFRVSLSHACKNAVKTDAPASALWDIMRCWEKECPVKRERLSETSPAFRILSVEPRLQANFTIREDANPSSRQRGLKRFQANPEANWGPRPRARPGGKAADEAMEERRRLLQNKRKEPPEDVAQRAARLKTFPCKRFKEGTCQRGDQCCYSHSPPTPRVSADAAPDCPETSNQTPPGPGAAAGPGID [TRMT1] | -0.0405 | -0.0538 | 56.3 | 56.7 | -0.711 | -1.01
